Measured values: patent publication US11773143B2, “Conformational epitopes in respiratory syncytial virus G protein central conserved region” (priority 2017, dated 2023)
Where no end group is shown, it is not given here.

Assays:
[1] = biological target: T1, CX3CR1 (Homo sapiens, UniProt P49238); assay: Chemotaxis assay: RSV G modulation of CX3CR1, receptor-mediated chemotaxis of THP-1 cells (transwell); type: cell-based; conditions: for Chemotactic activity: RSV G (CCR) variants, chemotaxis assay of Example 4, duplicate assays, standard deviations in parentheses
T1 construct: THP-1 cells (a human leukemia monocytic cell line) washed twice and suspended in serum-free RPMI 1640 media; endogenous in cells; host or cells: THP-1
T1 sequence (P49238 1-355): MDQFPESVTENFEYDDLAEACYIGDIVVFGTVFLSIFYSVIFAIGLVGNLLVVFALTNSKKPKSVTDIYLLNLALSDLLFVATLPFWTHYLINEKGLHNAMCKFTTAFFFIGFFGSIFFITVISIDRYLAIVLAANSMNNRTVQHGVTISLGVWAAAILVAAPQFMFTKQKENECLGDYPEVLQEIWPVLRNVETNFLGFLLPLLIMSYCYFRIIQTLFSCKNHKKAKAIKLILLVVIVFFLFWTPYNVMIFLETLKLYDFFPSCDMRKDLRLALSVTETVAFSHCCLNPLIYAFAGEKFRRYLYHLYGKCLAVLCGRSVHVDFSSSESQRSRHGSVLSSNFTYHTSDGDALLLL
Experimental: An in vitro assay for RSV G modulation of CX3CR1 measures receptor mediated chemotaxis of human monocyte THP-1 cells {Tripp, R. A. et al. Nature Immunology (2001) 2:732-738}. […]
In more detail, the assay was performed using a transwell insert plate with an 8 µm pore size. Approximately 2 million log-phase THP-1 cells (a human leukemia monocytic cell line) washed twice and suspended in serum-free RPMI 1640 media were added to the upper chamber of the insert plate. Negative control was serum-free media alone to which serum-free media containing 25 nM mAb was added to the lower chamber. As a positive control, media containing 10% FBS was added to the lower chamber. RSV G[ecto] or RSV G[161-197] samples were added to the lower chamber at a final concentration of 5 nM in serum-free media. For samples with RSV G[161-197] and mAbs, RSV G[161-197] was pre-incubated with 5-molar excess mAb for 20 min at room temperature, and then added to serum-free media in the lower chamber, for a final concentration of 5 nM RSV G[161-197] and 25 nM mAb. For samples with anti-CX3CR1 antibody, 2 μL 1 mg/mL anti-CX3CR1 rabbit polyclonal antibody (ThermoFisher Scientific Cat #PA5-19910) was incubated with THP-1 cells for 30 minutes in the upper chamber before being placed into the well. The assembled plates were incubated in a CO2 incubator at 37° C. for 5 h. Cells migrated to the lower chamber were counted, and the chemotactic indices were determined by comparing the fold-increase in cell migration toward the chemoattractant to cell migration toward serum-free media alone. Experiments were performed in at least four biological replicates.
Determination of structures of RSV G CCR protein in complex with the high affinity antibodies 2D10 and 3D3 shown in FIG. 4A-B provide a roadmap to design RSV G immunogens to disable CX3CR1 binding without disrupting the ability to generate high-affinity mAb epitopes. Specifically, six highly conserved amino acids have been identified whose side-chains make no molecular contacts with mAbs 3D3 and 2D10, so they can be substituted without impacting generation of high affinity mAbs similar to these mAbs. These residues are therefore candidates for substitution in order to interfere with binding to CX3CR1. Generally, providing an alteration in charge (charge switch) and/or a change in size or shape resulting in a steric hinderance (steric clash) would be expected to result in a negative impact on such binding. […] Six representative mutants have been tested for their impact on CX3CR1 function as measured by the chemotaxis assay described in Example 4. Table 4 summarizes the results of duplicate assays (with standard deviations) using the standard one letter abbreviations for the amino acid at the indicated residue.

[2] = system: RSV; conditions: mice, day 5 post-inoculation, vs isotype control; cited from earlier work
[3] = biological target: RSV G protein (Human respiratory syncytial virus A, UniProt P03423); conditions: read-out: affinity; mAb binding to RSV G protein; cited from earlier work
[4] = system: RSV; conditions: in vitro; cited from earlier work

Molecule: Wild type RSV G (CCR) (NDFHFEVFNFVPCSICSNNPTCWAICKRIPNKKPGKK; not fully specified (bridges); cysteine pairing not given here)
- Chemotactic activity [1]: 6.2 (0.7)

Molecule: E166→K: RSV G (CCR) variant, E166 to K, charge switch (NDFHFKVFNFVPCSICSNNPTCWAICKRIPNKKPGKK; not fully specified (bridges); cysteine pairing not given here)
- Chemotactic activity [1]: 1.6 (0.7)

Molecule: S177→W: RSV G (CCR) variant, S177 to W, steric clash (NDFHFEVFNFVPCSICWNNPTCWAICKRIPNKKPGKK; not fully specified (bridges); cysteine pairing not given here)
- Chemotactic activity [1]: 1.2 (0.4)

Molecule: Synagis: humanized mouse mAb against RSV F protein
- effect on total BAL cells [2]: did not reduce total BAL cells

Molecule: K192→E + K193 →E: RSV G (CCR) double variant, charge switch (NDFHFEVFNFVPCSICSNNPTCWAICKRIPNEEPGKK; not fully specified (bridges); cysteine pairing not given here)
- Chemotactic activity [1]: 2.5 (0.7)

Molecule: H164→Y: RSV G (CCR) variant, H164 to Y, steric clash (NDFYFEVFNFVPCSICSNNPTCWAICKRIPNKKPGKK; not fully specified (bridges); cysteine pairing not given here)
- Chemotactic activity [1]: 3.8 (0.4)

Molecule: E166→K + K187 →E: RSV G (CCR) double variant, charge switch (NDFHFKVFNFVPCSICSNNPTCWAICERIPNKKPGKK; not fully specified (bridges); cysteine pairing not given here)
- Chemotactic activity [1]: 1.8 (0.1)

Molecule: S177→R: RSV G (CCR) variant, substitution of arginine for serine at position 177 (NDFHFEVFNFVPCSICRNNPTCWAICKRIPNKKPGKK; not fully specified (bridges); cysteine pairing not given here)
- Chemotactic activity [1]: 0.9 (0.2)

B1: 3D3: high affinity, broadly neutralizing human mAb binding RSV G protein CCR (antibody, V domains shown)
VH: EEQLVESGGGLVQPGRSLRLSCVGSGLRFEEHAMHWVRQAPGRGLEWVSGISWNSGSVGYADSVKGRFTTSRDNAKDILFLEMNTLRSEDTALYFCAIMVATTKNDFHYYKDVWGKGTTVTVSS
VL: QIVLTQSPATLSLSPGERATLSCRASQSVSNHLAWYQQKPGQAPRLLIYETSNRATGIPPRFSGSGSGTDFTLTISSLEPEDFAVYYCQQRNNWYTFGQGTKLEIK
- Kd [3]: 1.1 pM
- Blocking of RSV G[161-197]-induced chemotaxis by pre-incubation with mAb ([1]; THP-1 cells, level comparable to anti-CX3CR1 polyclonal serum): blocked
- viral neutralizing activity [4]: broad neutralizing activity
